Assay results reported in article PMC3458824, “Direct Observation of the Uptake of Outer Membrane Proteins by the Periplasmic Chaperone Skp” (PLoS ONE, 2012).

Tests used:
Test in all cases: FRET or BRET; stopped-flow FRET; Cy5 labeled OmpC mutant in 8 M urea mixed 1:20 with Cy3 labeled Skp mutant; both 0.03 µM final; 50 mM PBS pH 7.0, 100 mM NaCl, 0.01% Tween 20, 25°C; Cy5 emission, fitted to three exponentials
Settings in all cases: both partners purified
[1] = target: T1, Skp-E82C-Cy3 (Escherichia coli, UniProt P0AEU7 21-161, E82C, Cy3 (Cy3-maleimide) on the introduced cysteine at 82)
T1 construct: Skp of Escherichia coli, each monomer 141 residues as printed; Extent of labeling greater than 90%; one dye on each of the three chains of the trimer; also called Cy3 labeled Skp mutant E82C; Skp-Cy3; source: E. coli BL21 (DE3), purified (Ni-NTA), labeled with Cy3-maleimide
T1 sequence (looked up): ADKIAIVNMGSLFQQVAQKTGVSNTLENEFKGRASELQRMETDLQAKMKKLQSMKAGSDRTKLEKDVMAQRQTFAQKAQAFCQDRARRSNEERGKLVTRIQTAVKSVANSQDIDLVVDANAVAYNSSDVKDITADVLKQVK

[2] = target: T2, Skp-D128C-Cy3 (Escherichia coli, UniProt P0AEU7 21-161, D128C, Cy3 (Cy3-maleimide) on the introduced cysteine at 128)
T2 construct: Skp of Escherichia coli, each monomer 141 residues as printed; Extent of labeling greater than 90%; one dye on each of the three chains of the trimer; also called Cy3 labeled Skp mutant D128C; Skp-Cy3; source: E. coli BL21 (DE3), purified (Ni-NTA), labeled with Cy3-maleimide
T2 sequence (looked up): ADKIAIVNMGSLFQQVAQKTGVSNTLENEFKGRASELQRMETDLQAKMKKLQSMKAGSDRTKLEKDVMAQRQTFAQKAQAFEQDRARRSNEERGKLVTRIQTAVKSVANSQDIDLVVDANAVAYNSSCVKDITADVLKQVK

[3] = target: T3, Skp-K55C-Cy3 (Escherichia coli, UniProt P0AEU7 21-161, K55C, Cy3 (Cy3-maleimide) on the introduced cysteine at 55)
T3 construct: Skp of Escherichia coli, each monomer 141 residues as printed; Extent of labeling greater than 90%; one dye on each of the three chains of the trimer; also called Cy3 labeled Skp mutant K55C; Skp-Cy3; source: E. coli BL21 (DE3), purified (Ni-NTA), labeled with Cy3-maleimide
T3 sequence (looked up): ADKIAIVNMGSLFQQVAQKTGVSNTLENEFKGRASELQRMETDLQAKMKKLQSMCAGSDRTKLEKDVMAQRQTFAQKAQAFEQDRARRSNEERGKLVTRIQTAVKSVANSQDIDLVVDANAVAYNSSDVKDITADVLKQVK

B1: OmpC-D25C-Cy5 (natural protein, Escherichia coli, UniProt P06996 22-367, looked up)
chain: AEVYNKDGNKLDLYGKVDGLHYFSCNKDVDGDQTYMRLGFKGETQVTDQLTGYGQWEYQIQGNSAENENNSWTRVAFAGLKFQDVGSFDYGRNYGVVYDVTSWTDVLPEFGGDTYGSDNFMQQRGNGFATYRNTDFFGLVDGLNFAVQYQGKNGNPSGEGFTSGVTNNGRDALRQNGDGVGGSITYDYEGFGIGGAISSSKRTDAQNTAAYIGNGDRAETYTGGLKYDANNIYLAAQYTQTYNATRVGSLGWANKAQNFEAVAQYQFDFGLRPSLAYLQSKGKNLGRGYDDEDILKYVDVGATYYFNKNMSTYVDYKINLLDDNQFTRDAGINTDNIVALGLVYQF
modifications: Cy5 (Cy5-maleimide) on the introduced cysteine at 25
notes: Outer membrane protein OmpC of Escherichia coli; 346 residues as printed; Extent of labeling greater than 90%; also called Cy5 labeled OmpC mutant D25C; source: E. coli BL21 (DE3), purified (Ni-NTA) in 8 M urea, unfolded, labeled with Cy5-maleimide
For B1, the “time constant τ1 of the fast phase” value [1] was 101 ± 6.9 ms, the “time constant τ1 of the fast phase” value [2] was 143 ± 10 ms and the “time constant τ1 of the fast phase” value [3] was 73 ± 5.1 ms.
